For the data set, the target named is T1, IscR-WT (Pseudomonas aeruginosa PAO1) (UniProt Q9HXI7).
T1 sequence: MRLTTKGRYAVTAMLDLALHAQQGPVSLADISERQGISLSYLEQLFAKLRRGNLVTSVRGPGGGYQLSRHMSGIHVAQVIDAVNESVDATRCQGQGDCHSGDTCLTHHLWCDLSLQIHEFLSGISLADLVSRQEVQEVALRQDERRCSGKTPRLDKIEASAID
In words: DNase I footprinting. As to conditions: EMSA: 20 mM Tris-HCl pH 8.0, 50 mM KCl, 4 mM MgCl2, 0.5 mM EDTA, 0.02 mg/ml BSA, 5 mM DTT, 10% glycerol, 200 ng poly(dI-dC), 3 fmol probe in 25 ul, 25 C …. On the technique in general: Mobility shift assays separate free from complexed probe on a gel.

Turning to “GCCTTTCTGCGGGAGCTGGCCATCGACGTTGACCGGGTTGCCCTTGAGAGTCACTTGAGCCATTGCGTTGATCCTTCTAGTCAGTGAGAAGCCGCCGGCCCTGTGGCCGGCGGCGGAAGCATTCGGGGCCGGCGACGATGCTAGCACGCTTTACCCGAGCGAAAACCTCGGGTTTGAGCATCGCCGTCCCCCGAGGCTCAACTCCTGGCCTTGGCGAAATACTCCCGGGTC (double strand) [tpx promoter]”, the binding result is recorded as “binds”.

For the origin of these results see paper PMC6599224.
